From US20180030149A1 (AVEO PHARMACEUTICALS, published 2018) come the findings set out here.

For orientation: Kd means the free concentration of one partner at which half of the binding sites on the other are occupied at equilibrium, for simple one-to-one binding. Usually koff stands for a measure of how fast the partners let go of each other. As a reminder, the kon is the rate constant with which the complex forms.

First the molecules themselves.
B1: Sh24C05-21 (antibody, human IgG1, kappa, V domains shown)
VH: EVQLVESGGGLVKPGGSLRLSCAASGFTFSDYAMSWVRQAPGKGLEWVSTISDGGTYTYYPDNVKGRFTISRDNAKNSLYLQMNSLRAEDTAVYYCAREWGDYDGFDYWGQGTLVTVSS
VL: DIQMTQSPSSLSASVGDRVTITCRASQEISGYLSWFQQKPGKAPKSLIYAASTLDSGVPSRFSGSGSGTDFTLTISSLQPEDFATYYCLQYDSYPYTFGQGTKLEIKR
notes: Humanized, human IgG1/kappa
B2: Sh24C05-27 (antibody, human IgG1, kappa, V domains shown)
VH: B1 VH
VL: B1 VL with F36Y, S46R, D70E
notes: Humanized, human IgG1/kappa
B3: Sh24C05-41 (antibody, human IgG1, kappa, V domains shown)
VH: B1 VH with E1Q, L11V, K13Q, G16R, S49A, A75S, S78T, N84S
VL: B1 VL with M4L, S10F, F36Y, S46L, D70E
notes: Humanized, human IgG1/kappa
B4: Sh24C05-39 (antibody, human IgG1, kappa, V domains shown)
VH: B1 VH
VL: B1 VL with M4L, S10F, F36Y, S46L, D70E
notes: Humanized, human IgG1/kappa
B5: Sh24C05-42 (antibody, human IgG1, kappa)
heavy: not shown
light: DIQLTQSPSFLSASVGDRVTITCRASQEISGYLSWYQQKPGKAPKLLIYAASTLDSGVPSRFSGSGSGTEFTLTISSLQPEDFATYYCLQYDSYPYTFGQGTKLEIKRTVAAPSVFIFPPSDEQLKSGTASVVCLLNNFYPREAKVQWKVDNALQSGNSQESVTEQDSKDSTYSLSSTLTLSKADYEKHKVYACEVTHQGLSSPVTKSFNRGEC
notes: Humanized, human IgG1/kappa
B6: Sh24C05-37 (antibody, human IgG1, kappa, V domains shown)
VH: B1 VH with E1Q, V37I
VL: B1 VL with F36Y, S46L, L73F, F83I
notes: Humanized, human IgG1/kappa
B7: Sh24C05-43 (antibody, human IgG1, kappa, V domains shown)
VH: B1 VH with E1Q, V37I
VL: B1 VL with M4L, S10F, F36Y, S46L, D70E
notes: Humanized, human IgG1/kappa
B8: Sh24C05-46 (antibody, human IgG1, kappa, V domains shown)
VH: B1 VH with V5L, K13Q, A75S, S78T
VL: B1 VL with F36Y, S46L
notes: Humanized, human IgG1/kappa
B9: Sh24C05-23 (antibody, human IgG1, kappa, V domains shown)
VH: B1 VH with E1Q, L11V, K13Q, G16R, S49A, A75S, S78T, N84S
VL: B1 VL
notes: Humanized, human IgG1/kappa
B10: Sh24C05-22 (antibody, human IgG1, kappa, V domains shown)
VH: B1 VH with V5L, K13Q, A75S, S78T
VL: B1 VL
notes: Humanized, human IgG1/kappa
B11: Sh24C05-40 (antibody, human IgG1, kappa, V domains shown)
VH: B1 VH with V5L, K13Q, A75S, S78T
VL: B1 VL with M4L, S10F, F36Y, S46L, D70E
notes: Humanized, human IgG1/kappa
B12: Sh24C05-24 (antibody, human IgG1, kappa)
heavy: not shown
light: B5 light with L4M, F10S, Y36F, L46S, E70D
notes: Humanized, human IgG1/kappa
B13: Sh24C05-26 (antibody, human IgG1, kappa)
heavy: not shown
light: B5 light with L4M, F10S, L46R
notes: Humanized, human IgG1/kappa
B14: Sh24C05-47 (antibody, human IgG1, kappa, V domains shown)
VH: B1 VH with E1Q, L11V, K13Q, G16R, S49A, A75S, S78T, N84S
VL: B1 VL with F36Y, S46L
notes: Humanized, human IgG1/kappa
B15: Sh24C05-33 (antibody, human IgG1, kappa, V domains shown)
VH: B1 VH
VL: B1 VL with F36Y, S46L, L73F, F83I
notes: Humanized, human IgG1/kappa
B16: Sh24C05-28 (antibody, human IgG1, kappa, V domains shown)
VH: B1 VH with V5L, K13Q, A75S, S78T
VL: B1 VL with F36Y, S46R, D70E
notes: Humanized, human IgG1/kappa
B17: Sh24C05-35 (antibody, human IgG1, kappa, V domains shown)
VH: B1 VH with E1Q, L11V, K13Q, G16R, S49A, A75S, S78T, N84S
VL: B1 VL with F36Y, S46L, L73F, F83I
notes: Humanized, human IgG1/kappa
B18: Sh24C05-34 (antibody, human IgG1, kappa, V domains shown)
VH: B1 VH with V5L, K13Q, A75S, S78T
VL: B1 VL with F36Y, S46L, L73F, F83I
notes: Humanized, human IgG1/kappa
B19: Sh24C05-29 (antibody, human IgG1, kappa, V domains shown)
VH: B1 VH with E1Q, L11V, K13Q, G16R, S49A, A75S, S78T, N84S
VL: B1 VL with F36Y, S46R, D70E
notes: Humanized, human IgG1/kappa
B20: Sh24C05-38 (antibody, human IgG1, kappa)
heavy: not shown
light: B5 light
notes: Humanized, human IgG1/kappa
B21: Sh24C05-30 (antibody, human IgG1, kappa)
heavy: not shown
light: B5 light with L4M, F10S, L46R
notes: Humanized, human IgG1/kappa
B22: Sh24C05-44 (antibody, human IgG1, kappa)
heavy: not shown
light: B5 light with L4M, F10S, E70D
notes: Humanized, human IgG1/kappa

Numbering of substitutions follows the chain as printed.

This test addresses T1, recombinant human ErbB3 monomeric protein (cleaved rhErbB3) (human, UniProt P21860 20-643, limits assumed).
T1 construct: Monomer made by protease cleavage of the Fc fusion; also called Monomeric ErbB3
Kind of test: SPR Biacore 37 C; supernatant antibody captured on anti-human Fc, cleaved rhErbB3 injected. On the procedure:
The analyses were performed at 37° C. using PBS (Invitrogen, Catalog No. 14040-133) containing 0.05% surfactant P20 (Biacore, Catalog No. BR-1000-54) as running buffer.
The antibodies were captured in individual flow cells at a flow rate of […]. Injection time was varied for each antibody to yield an Rₘₐₓ between 30 and 60 RU. […] The dissociation phase was monitored for up to 1200 seconds. The surface was then regenerated with two 60 second injections of Glycine pH 2.25 (made from Glycine pH 2.0 (Biacore, Catalog No. BR-1003-55) and pH 2.5 (Biacore, Catalog No. BR-1003-56)) at […].
Kinetic parameters were determined using the kinetic function of the BIAevaluation software (Biacore) with double reference subtraction. Kinetic parameters for each antibody, kₐ (association rate constant), kd (dissociation rate constant) and KD (equilibrium dissociation constant) were determined.
As for B1, the Kd came out at 0.22 nM, the koff was found to be 0.000662 s⁻¹ and the on-rate constant (kon) came to 3.11e+06 M⁻¹ s⁻¹.
On to B2, for which the Kd came out at 0.24 nM, the dissociation rate constant (koff) was determined as 0.000798 s⁻¹ and the association rate constant (kon) was found to be 3.34e+06 M⁻¹ s⁻¹.
For B3 the same measures were 0.669 nM, 0.0121 s⁻¹ and 1.81e+07 M⁻¹ s⁻¹.
In the case of B4, the Kd is 0.819 nM, the off-rate constant (koff) turned out to be 0.00967 s⁻¹ and the kon amounted to 1.18e+07 M⁻¹ s⁻¹.
As for B5, the dissociation constant (Kd) was 0.927 nM, the off-rate (koff) is 0.00682 s⁻¹ and the kon amounted to 7.35e+06 M⁻¹ s⁻¹.
The corresponding values for B6 are 0.374 nM, 0.002 s⁻¹ and 5.94e+06 M⁻¹ s⁻¹.
Turning to B7, the Kd is 0.582 nM, the off-rate (koff) is 0.00358 s⁻¹ and the on-rate constant (kon) stood at 6.16e+06 M⁻¹ s⁻¹.
B8: the Kd is 0.551 nM, the off-rate (koff) is 0.0044 s⁻¹ and the kon was 7.99e+06 M⁻¹ s⁻¹.
B9: the dissociation constant (Kd) worked out at 0.263 nM, the off-rate constant (koff) worked out at 0.000721 s⁻¹ and the kon is 2.79e+06 M⁻¹ s⁻¹.
B10: the Kd was 0.216 nM, the koff amounted to 0.000601 s⁻¹ and the kon turned out to be 2.79e+06 M⁻¹ s⁻¹.
Regarding B11, the Kd was determined as 0.503 nM, the koff came out at 0.0106 s⁻¹ and the kon amounted to 2.11e+07 M⁻¹ s⁻¹.
For B12, the dissociation constant (Kd) came to 0.218 nM, the off-rate (koff) came out at 0.000628 s⁻¹ and the on-rate constant (kon) is 2.9e+06 M⁻¹ s⁻¹.
The corresponding values for B13 are 0.22 nM, 0.000739 s⁻¹ and 3.36e+06 M⁻¹ s⁻¹.
As to B14, the Kd amounted to 0.553 nM, the koff was found to be 0.00441 s⁻¹ and the kon turned out to be 7.98e+06 M⁻¹ s⁻¹.
As to B15, the dissociation constant Kd is 1.08 nM, the koff was 0.00433 s⁻¹ and the kon came to 4.02e+06 M⁻¹ s⁻¹.
B16: the dissociation constant (Kd) is 0.189 nM, the koff was 0.000614 s⁻¹ and the kon is 3.26e+06 M⁻¹ s⁻¹.
The corresponding values for B17 are 0.655 nM, 0.00553 s⁻¹ and 8.44e+06 M⁻¹ s⁻¹.
In the case of B18, the equilibrium dissociation constant (Kd) amounted to 0.552 nM, the koff came out at 0.006 s⁻¹ and the kon was 1.09e+07 M⁻¹ s⁻¹.
In the case of B19, the dissociation constant (Kd) turned out to be 0.182 nM, the koff was 0.000588 s⁻¹ and the association rate constant (kon) worked out at 3.25e+06 M⁻¹ s⁻¹.
The corresponding values for B20 are 0.567 nM, 0.0154 s⁻¹ and 2.71e+07 M⁻¹ s⁻¹.
Regarding B21, the equilibrium dissociation constant (Kd) was 0.19 nM, the koff stood at 0.000787 s⁻¹ and the on-rate constant (kon) is 4.48e+06 M⁻¹ s⁻¹.
Take B22: the Kd is 0.644 nM, the off-rate (koff) was 0.00512 s⁻¹ and the on-rate (kon) amounted to 7.96e+06 M⁻¹ s⁻¹.
